Literature values in PMC10671529.

Tests used:
HigB2 (Vibrio cholerae) = HigB2 (Vibrio cholerae) (UniProt Q9KMA6)
Im9 (Escherichia coli) = Im9 (Escherichia coli) (UniProt P13479)
Chain of UniProt P13479 (P13479 whole entry): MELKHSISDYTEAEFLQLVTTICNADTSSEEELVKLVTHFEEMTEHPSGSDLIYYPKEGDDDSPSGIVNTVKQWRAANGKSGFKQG

Chain of UniProt Q9KMA6 (Q9KMA6 whole entry): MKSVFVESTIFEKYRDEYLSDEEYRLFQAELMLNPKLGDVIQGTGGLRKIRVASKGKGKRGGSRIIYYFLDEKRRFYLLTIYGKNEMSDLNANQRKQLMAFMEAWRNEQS

Row | Substance | Kd (HigB2 (Vibrio cholerae)) [pM] | Kd (Im9 (Escherichia coli)) [pM]
1 | HigA2 (from UniProt Q9KMA5) | 3.1 | –
2 | colicin E9 DNase (from UniProt P09883) | – | 0.023
